Data taken from patent US20180344813A1, “ENGINEERED POLYPEPTIDES HAVING ENHANCED DURATION OF ACTION WITH REDUCED IMMUNOGENICITY” (priority 2016, published 2018).

Tests used:
[1] = system: renal cortical tubular epithelial cells; experiment: Kidney vacuolization histopathology in C57BL6 female mice; type: in vivo, mouse
Experimental: With some drugs, such as some pegylated proteins, undesirable vacuoles can form in cytoplasm of epithelial cells lining the proximal convoluted tubules, which is an undesirable toxicity measure. […] C57BL6 female mice (n=2 cages, 3 mice/cage) were weighed daily 3 hours prior to lights out. Immediately after weighing, on days 0-6 mice were injected subcutaneously with test compound. Mice were sacrificed on day 7 and kidneys submitted for histopathology. […] A positive control compound known to cause vacuole formation was scored as 3.

NIH/Swiss mice = experiment: OGTT DOA (oral glucose tolerance test duration of action); type: in vivo, mouse
Experimental: For example, duration can be performed using an oral glucose tolerance test (OGTT) in which the drug is administered to the subject at a desired time point before the glucose is administered orally(to measure drug duration of action; OGTT DOA) and glucose blood levels are measured (e.g. readily done in mice).
Drug was administered to 4-hr fasted NIH/Swiss mice. […] Blood glucose was measured with a OneTouch® Ultra® (LifeScan, Inc., a Johnson & Johnson Company, Milpitas, Calif.). *p<0.05 vs. vehicle control; ANOVA, Dunnett's test. Glucose lowering as percent lowering compared to vehicle is given (negative value indicates lowering of glucose) at 30 minutes post gavage.

GLP-1 receptor = molecular target: T1, GLP-1 receptor (Rattus norvegicus, UniProt P32301); experiment: GLP-1 receptor functional assay: cAMP induction (HTRF) in rat thyroid carcinoma 6-23 (clone 6) cells; type: cell-based
T1 construct: functional activity was determined using cells that endogenously express GLP-1R; endogenous in cells; host or cells: rat thyroid carcinoma 6-23 (clone 6) cells
T1 sequence (P32301 22-463): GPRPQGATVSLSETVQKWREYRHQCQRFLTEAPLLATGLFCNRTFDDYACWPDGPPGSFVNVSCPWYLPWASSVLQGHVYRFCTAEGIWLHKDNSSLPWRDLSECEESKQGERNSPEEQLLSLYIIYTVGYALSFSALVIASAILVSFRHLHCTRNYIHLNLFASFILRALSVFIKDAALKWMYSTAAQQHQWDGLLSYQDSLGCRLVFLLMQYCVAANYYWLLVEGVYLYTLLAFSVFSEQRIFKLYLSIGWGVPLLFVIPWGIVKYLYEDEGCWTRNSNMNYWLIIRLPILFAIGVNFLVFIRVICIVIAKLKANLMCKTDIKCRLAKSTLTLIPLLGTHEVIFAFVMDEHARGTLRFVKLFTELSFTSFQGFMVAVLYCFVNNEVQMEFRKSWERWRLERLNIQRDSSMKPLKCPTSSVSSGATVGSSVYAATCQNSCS

## CC[C@H](C)[C@H](NC(=O)[C@H](C)NC(=O)[C@H](CC(=O)O)NC(=O)[C@H](CCCCN)NC(=O)[C@H](CC(C)C)NC(=O)[C@H](C)NC(=O)[C@H](CCC(=O)O)NC(=O)[C@@H](NC(=O)CNC(=O)[C@H](CCC(=O)O)NC(=O)[C@@H](NC(=O)[C@@H](NC(=O)[C@H](CCCCN)NC(=O)[C@H](C)NC(=O)[C@H](CCCCN)NC(=O)[C@H](CC(=O)O)NC(=O)[C@@H](NC(=O)[C@H](CC(C)C)NC(=O)[C@H](CCCNC(=N)N)NC(=O)[C@H](CCCCN)NC(=O)[C@H](Cc1ccc(O)cc1)NC(=O)[C@H](Cc1ccccc1)NC(=O)[C@H](CC(=O)O)NC(=O)[C@H](CO)NC(=O)[C@@H](NC(=O)CNC(=O)[C@H](Cc1ccc(O)cc1)NC(=O)[C@H](CO)NC(=O)[C@H](CC(=O)O)NC(=O)[C@H](CC(C)C)NC(=O)[C@H](CCC(=O)O)NC(=O)[C@H](C)NC(=O)[C@H](CC(N)=O)NC(=O)[C@H](C)NC(=O)[C@H](C)NC(=O)[C@H](CCC(=O)O)NC(=O)[C@H](CCCCN)NC(=O)[C@H](C)NC(=O)[C@H](CCC(=O)O)NC(=O)[C@H](C)NC(=O)[C@H](CC(C)C)NC(=O)[C@H](CO)NC(=O)CN)C(C)C)[C@@H](C)CC)[C@@H](C)O)C(C)C)C(C)C)C(=O)N[C@@H](CC(C)C)C(=O)N[C@@H](C)C(=O)N[C@@H](C)C(=O)N[C@@H](CC(C)C)C(=O)N1CCC[C@H]1C(=O)O [PEP07986]
[1]; mouse, in vivo, sc
  severity score for cytoplasmic vacuolation of renal cortical tubular epithelial cells: 0

## HGEGTFTSDLSKQLEEEAVRLFIEWLKNGGPSSGAPPKSTGGGGSASGSLAEAKEAANAELDSYGVSDFYKRLIDKAKTVEGVEALKDAILAALP [Cmpd 6]
NIH/Swiss mice; 25 nmol/Kg, OGTT at 24 hours post drug administration, 30 minutes post gavage, 4-hr fasted NIH/Swiss mice
  Percent glucose lowering compared to vehicle: −22%

## HGEGTFTSDLSKQLEEEAVRLFIEWLKQGGPSKEIISTGGGGSASGSLAEAKEAANAELDSYGVSDFYKRLIDKAKTVEGVEALKDAILAALP [Cmpd 5]
[1]; subcutaneous on days 0-6, sacrificed on day 7, C57BL6 female mice
  severity score for cytoplasmic vacuolation of renal cortical tubular epithelial cells: 0

B1: HGEGTFTSDLSKQLEEEAVRLFIEWLKNTGGGGSASGSLAEAKEAANAELDSYGVS DFYKRLIDKAKTVEGVEALKDAILAALP (protein)
chain: HGEGTFTSDLSKQLEEEAVRLFIEWLKNTGGGGSASGSLAEAKEAANAELDSYGVSDFYKRLIDKAKTVEGVEALKDAILAALP
NIH/Swiss mice; NIH/Swiss mice, drug given 24 hours before OGTT
  activity in OGTT DOA when dosed at t-24 hours: did not display 24 duration
GLP-1 receptor
  in vitro activity against the GLP-1 receptor: active in vitro against the GLP-1 receptor
